Measured values as given in the DeepSol protein solubility set.

Test: soluble on expression in E. coli; label from the status in PepcDB or PDB records

Sequence | soluble on expression in E. coli
GLVLPHTEFQPAPKQDSSPHLTSQRPVDMVQLLKKYPIVWQGLLALKNDTAAVQLHFVSGNNVLAHRSLPLSEGGPPLRIAQRMRLEATQLEGVARRMTVETDYCLLLALPCGRDQEDVVSQTESLKAAFITYLQAKQAAGIINVPNPGSNQPAYVLQIFPPCEFSESHLSRLAPDLLASISNISPHLMIVIASV | soluble
MDYKFPKDFMFGTSTASYQIEGGWNEDGKGENIWDRLVHTSPEVIKDGTNGDIACDSYHKYKEDVAIIKDLNLKFYRFSISWARIAPSGVMNSLEPKGIAYYNNLINELIKNDIIPLVTMYHWDLPQYLQDLGGWVNPIMSDYFKEYARVLFTYFGDRVKWWITFNEPIAVCKGYSIKAYAPNLNLKTTGHYLAGHTQLIAHGKAYRLYEEMFKPTQNGKISISISGVFFMPKNAESDDDIETAERANQFERGWFGHPVYKGDYPPIMKKWVDQKSKEEGLPWSKLPKFTKDEIKLLKGTADFYALNHYSSRLVTFGSDPNPNFNPDASYVTSVDEAWLKPNETPYIIPVPEGLRKLLIWLKNEYGNPQLLITENGYGDDGQLDDFEKISYLKNYLNATLQAMYEDKCNVIGYTVWSLLDNFEWFYGYSIHFGLVKIDFNDPQRTRTKRESYTYFKNVVSTGKP | soluble
MSLFQDNPLLAQLKQKIQETLPKKEGTIKASDKGFGFLEVDSKTSYFVPPPYMKKCMHGDKVVAFIRTENEREVAEPSELIEQSLTRFIGRVKLFKGKLNVAPDHPQLKKLSLKAKTKKGLNEADFQEGDWVVAHLVRHPLKGDDGFFVQISHKITDANDKIAPWWVTLAENDLPNSEPAGIDDWQLKDDADLVREDLTALPFVTIDGESTKDMDDALYAQQLPNGDFALTIAIADPTAYITPEDEMDKVARERGFTIYLPGRNIPMLPRDLADELCSLMENQVRPALCCSVTIRKDGVIGDDIRFFAANIKSHARLVYDHVSDWLETGSSEQWQPSEEIAQVVRDLYAFSQARANWRETHAVVFPDRPDYRFELSADNDVVAIHADMRRTANRLVEESMITANICAGKTLQTTFGFGVFNTHAGFKAEKMADVVELMAVNGAPNADAETLATVEGFAALRRWLATQETSYLDNRIRKYQSYSEIGNQPLPHFAMGLDVYATWTSPIRKYGDMINHRLLKAHILGKAPVQTPDETVGEELALHRKHHKIAERNVADWLYARTLADEPAKETRFQAEIFDINRPGMRVRLLENGAMAFIPGALILDNKERIECNGEDGTVLIDKEVVYKLGDVLEIVLTEVNQENRSLVGKPTQVFADLVSETQTSAEQPAEGAENNEPQVEGHHHHHH | soluble
MSLAARQTVTDVDSFSKELMTASPDLLGSMVKAFAEALMGAEVDGICNAEYGEISPERVNRRNGYRAREWDTRAGTIELAVPKLRQGSYFPEWLLTRRRRAEQALISVVATSYLLGVSTRRVDKLVEQLGVAHISKSQVSVLAKHLDTQVEAFRSRPLDAGPYRFVQADALTMKVREDGRVINVHCLLAVGVNGDGHREILGLDVVSSEDGAGWLAFFRGLVARGLSGVRLVTSDAHRGLVNAIGSTLPGASWQRCRTHYLRDLLTMTPKSSQPWVATLVRTVFDQADANEVGGQFDRVTEALSEKLPKAADHLSGAKADLLAFTTYPREVWRQIWSSNPQERLNKEIRRRTDVVGIFPDRDAIIRLVGAVLAEQHDEWIETHRYFGLEILAKVDATNKKSDTPEIGVTEGHHHHHH | soluble
MLKRKVITEFRRHNRSSRWNADAHLRAHERSANVEDDAIMRVDTCQLAANNPIEDFYSAAKCLSSRAFLFGVFDGHGGQQCSRHISTNLYPYLCASVLKKHEVVDYPSDQRLEWLFSSSDGHLPNAFKGRETQHIAEYHKQFKKNANAYTGTVREALKLAFETCDKDLAENALPSAKGVIDRHAAMVAASGSCCTLAHIRSRHLHVANLGDAAAVLGVVNPNGSVTARQLSRAHCVDNADEVHRIRIAHPASESQTVLRGGRLLGELFPLRAFGDVRYKWPLDLQKVVLEPLGHPPPQHLFTPPYLSTSPEVFYHKLTPNDRFLVLATDGLWEWLDPDTVVRLVHDHTLGTITQQPYVPKSGTSLRQVREQLKDRARGEQKTKKPIDENCATHIIRHALGGVSGGATKQYERLIDILQVPPGRARNYRDDITVIVIHFNETFLDGHEDDEE | not soluble
MWVEKKKDKKGNITYQYRERYTDPRTGKTQKVTTTLAKNTKQAENAARRELEIKIQKILTDYEEEKRLENLIKNEGVIPNDKTLEDMIKEWFDYIQDPKSKERKKGSTLSGYSYGIDSLLNEFLVIEKDKRIQDLTFDDIQAFYDRMIFDFEYQKSYIKRFRAIIRGAFTLAYKKRYIKNLDAINLSKIVTPAKTVDDLINEQVPRYLEKAEAEQIFQVLNGYNPLYTQILELQFHTGMRFGELIALESKNFHDGFLLDIHGTYDHATRSHTRGQKVPPKTRKSFRTIELGDAAVQIIKDRMYHNHFIKNKNSDFLFVTSNDRPYDLGTINSFIASHQIEFNTSTKVSTHVFRHTHISMLAEKSIPIQVIMDRVGHEDRETTEKIYMHVTKKQKTDLVKTLNEL | not soluble
SFQGQRGWFCGSVSQDLRQFWVAEGGTISDPRAADFLFSCDASHPDTLRIYQSLDYIEDNATVFHAYYLSAVANAKIKNSVALGHFILPPACLQKEIRRKIGSFIWEQDQHFLIEKHDEVTPNEIKTLRENSELATEHKKELSKSPEKHFIRTPVVEKQMYFPLQNYPVNNMVTGYISIDAMKKFLGELHDFIPGTSGYLAYHVQNEINMSAIKNKLKRK | soluble
MAAPAASGLSRQVRSFSTSVVRPFAKLVRPPVQVYGIEGRYATALYSAASKEKKLDQVEKELLRVGQLLKDPKVSLAVLNPYIKRTVKVKSLNDITKREKFSPLTANLMNLLAENGRLGNTQGIISAFSTIMSVHRGEVPCTVTTASPLDDAVLSELKTVLKSFLSPNQILKLEIKTDPSIMGGMIVRIGEKYVDMSAKSKIQKLSKAMREML | soluble
VAYLTEVVVNEVVEAHEVPEVQHALNINSSESLIHIVRTRRLNQHVKIVDEDYFLKSIVSDIGNDVASDSIYDYLEKVLNLNISYSSKSITFEPFDEQAYQLFGDVSVAYSATVRSIVYLENTMPFQYNISKHLA | not soluble
MKKYFLGDQPTTLDASAFGFLINTIACPIESPLKEYGLSKENLGDYIDRIKMQYYPDLQLEHHHHHH | not soluble
MQALGLIETRGLLPAIECADVMLKTAQVELVGRDFVGGGLVTISVTGDVGAVKAAVEAGAAAVEKISPLLLVSQHVIPRPHQEIEGMIGPSPAAKQAPPVPQPEKVKALPGFDQTTNKQTIDDFVQEFGLEPCVDALKTLPVLKLRNLAREYKGLAIAGRAISKANKEDLIQQLKEYYNQKHE | not soluble
MTIKIALLGFGTVAKGIPYLLKENQHKLLSLEGEDIVIDKVLVRDNESRQRFINQGFTYNFVTEINTILQDSQIDIVVELMGGIEPAKTYLSQALGFGKHIVTANKDLIALHGKELMDLADARGLALFYEGAVAGGIPILRTLSHSFASDKMTRLLGILNGTSNFMLTKMFEEGWSYEQALKKAQELGYAESDPTNDVEGIDTAYKATILSQFGFGMPIDFDDVNYKGISSIRSEDVEVAQEMGFAIKLVADLRETPTGISVDVSPTLISQKHPLAAVNHVMNAVFIESIGIGQSLFYGPGAGQNPTATSVLADIIDISRSIRSQIKIKPMNTYHCPCRLSMQSDIFNEYYLAISLRNAEDSDTLGRYFEQENIGLKNVIEKALGDKQQEIYVLTDEVSQEKITQFIEEFPESGVIQLINVFKVIGGLEHHHHHH | soluble
MSLYIETVRGKIKPEEFGVCACHEHLHIDLSRIKNDSDTALVEVALVLSDLKSFVSHGGQAIVDVTNDGMGRDVEKLVVMSEALDLHIVASTGCYKDPFIPEEKQMWTREQFAEWMIDEIMYGISGTTVKPGVIGEIGSSLNEFKPVELELFYGAIEAAKTTKLPLSTHTTLGTLAMEQIRLFDSESLPLDQVIIGHQDLNDDDEQVLKVLSTGAYVALDTIGKENYRSDEARLNSLLLFLEKGYEDQLLLSSDVTRTSHLLVHGGQGYDVVLRSFIPKLRAKGADEATIQKLLVKTHKKHLASREGHHHHHH | not soluble
MKIVAVTACPTGIAHTYMAADALTKAAPKYNVQIKVETQGAMGIENPLTPYDLSHADKVLIVSDIDIEQPARFEGMKVVKLSIEEVLLNVDKVFLVHCR | not soluble
LTGPLMLDTAPNAFDDQYEGCVNKMEEKAPLLLQEDFNMNAKLKVAWEEAKKRWNNIKPSRSYPKGFNDFHGTALVAYTGSIAVDFNRAVREFKENPGQFHYKAFHYYLTRALQLLSNGDCHSVYRGTKTRFHYTGAGSVRFGQFTSSSLSKKVAQSQEFFSDHGTLFIIKTCLGVYIKEFSFRPDQEAVLIPGYEVYQKVRTQGYNEIFLDSPKRKKSNYNCLYS | soluble
